How the values were obtained:
[1] = biological target: T1, Anti-CD28 Fab (SEQ ID NOs: 202, 203); assay: phage ELISA, Fab on plate, CD28 antigen as competitor
T1 construct: biotinylated and captured on neutravidin coated plates in the phage ELISA

[2] = biological target: T1, Anti-CD28 Fab (SEQ ID NOs: 202, 203); assay: phage ELISA, Fab on plate;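 note: crude clonal phage supernatants added to wells pretreated with blocking buffer with or without CD28 antigen, then bound phage read out via HRP-linked anti-M13 antibody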

T1 sequence (VH, as listed by the source, chain 1 of 2): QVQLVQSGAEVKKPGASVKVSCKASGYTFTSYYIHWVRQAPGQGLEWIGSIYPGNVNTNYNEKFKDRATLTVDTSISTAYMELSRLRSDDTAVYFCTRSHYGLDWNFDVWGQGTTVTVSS
T1 sequence (VL, as listed by the source, chain 2 of 2): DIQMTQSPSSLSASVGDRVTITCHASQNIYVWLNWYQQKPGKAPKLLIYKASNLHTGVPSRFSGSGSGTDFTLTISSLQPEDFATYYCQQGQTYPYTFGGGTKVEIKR

YCDGHLMEYKAKCL [Phage-613]
Anti-CD28 Fab signal in the presence of CD28 [1]: 0.06 | Anti-CD28 Fab (SEQ ID NOs: 202, 203) signal [2]: 1.41

YCAGHSAEYMSKCL [Phage-612]
Anti-CD28 Fab signal in the presence of CD28 [1]: 0.07 | Anti-CD28 Fab (SEQ ID NOs: 202, 203) signal [2]: 1.41

YCDGHAPEYLGKCL [Phage-609]
Anti-CD28 Fab signal in the presence of CD28 [1]: 0.06 | Anti-CD28 Fab (SEQ ID NOs: 202, 203) signal [2]: 1.41

YCLGHSWPYIHKCY [Phage-602]
Anti-CD28 Fab signal in the presence of CD28 [1]: 0.07 | Anti-CD28 Fab (SEQ ID NOs: 202, 203) signal [2]: 1.43

YCEGHSAEYIAKCL [Phage-614]
Anti-CD28 Fab signal in the presence of CD28 [1]: 0.09 | Anti-CD28 Fab (SEQ ID NOs: 202, 203) signal [2]: 1.41

YCDGHSAEYIAKCL [Phage-662]
Anti-CD28 Fab signal in the presence of CD28 [1]: 0.05 | Anti-CD28 Fab (SEQ ID NOs: 202, 203) signal [2]: 1.31

YCDGHSLEYIDKCM [Phage-607]
Anti-CD28 Fab signal in the presence of CD28 [1]: 0.09 | Anti-CD28 Fab (SEQ ID NOs: 202, 203) signal [2]: 1.42

YCAGHAEEYLEKCL [Phage-610]
Anti-CD28 Fab signal in the presence of CD28 [1]: 0.15 | Anti-CD28 Fab (SEQ ID NOs: 202, 203) signal [2]: 1.41

YCDGHSPEYMQKCL [Phage-617]
Anti-CD28 Fab signal in the presence of CD28 [1]: 0.53 | Anti-CD28 Fab (SEQ ID NOs: 202, 203) signal [2]: 1.4

YCDGHLPEYMQKCL [Phage-643]
Anti-CD28 Fab signal in the presence of CD28 [1]: 0.08 | Anti-CD28 Fab (SEQ ID NOs: 202, 203) signal [2]: 1.35

YCDGHSHEYMQKCL [Phage-611]
Anti-CD28 Fab signal in the presence of CD28 [1]: 0.06 | Anti-CD28 Fab (SEQ ID NOs: 202, 203) signal [2]: 1.41

YCDGHLQEYMQKCL [Phage-627]
Anti-CD28 Fab signal in the presence of CD28 [1]: 0.06 | Anti-CD28 Fab (SEQ ID NOs: 202, 203) signal [2]: 1.38

YCDGHLDEYMLKCL [Phage-603]
Anti-CD28 Fab signal in the presence of CD28 [1]: 0.06 | Anti-CD28 Fab (SEQ ID NOs: 202, 203) signal [2]: 1.43

YCDGHTPEYMWKCL [Phage-604]
Anti-CD28 Fab signal in the presence of CD28 [1]: 0.06 | Anti-CD28 Fab (SEQ ID NOs: 202, 203) signal [2]: 1.43

YCDGHTKEYMWKCL [Phage-736]
Anti-CD28 Fab signal in the presence of CD28 [1]: 0.06 | Anti-CD28 Fab (SEQ ID NOs: 202, 203) signal [2]: 1.1

YCDGHSPAFIQKCL [Phage-606]
Anti-CD28 Fab signal in the presence of CD28 [1]: 0.08 | Anti-CD28 Fab (SEQ ID NOs: 202, 203) signal [2]: 1.42

YCQGHSPNYITKCF [Phage-608]
Anti-CD28 Fab signal in the presence of CD28 [1]: 0.06 | Anti-CD28 Fab (SEQ ID NOs: 202, 203) signal [2]: 1.41

YCEGHSQQYMQKCL [Phage-605]
Anti-CD28 Fab signal in the presence of CD28 [1]: 0.08 | Anti-CD28 Fab (SEQ ID NOs: 202, 203) signal [2]: 1.42

YCEGHSQQYMWKCL [Phage-711]
Anti-CD28 Fab signal in the presence of CD28 [1]: 0.05 | Anti-CD28 Fab (SEQ ID NOs: 202, 203) signal [2]: 1.17

YCEGHSYQYMQKCL [Phage-715]
Anti-CD28 Fab signal in the presence of CD28 [1]: 0.06 | Anti-CD28 Fab (SEQ ID NOs: 202, 203) signal [2]: 1.16

YCEGHSQTYMWKCL [Phage-709]
Anti-CD28 Fab signal in the presence of CD28 [1]: 0.08 | Anti-CD28 Fab (SEQ ID NOs: 202, 203) signal [2]: 1.17

From patent publication US20260274955A1 (JANUX THERAPEUTICS, published 2026)
